The results in this text go back to paper PMC5253658.

Some results are limits rather than exact numbers.

In assay [1] the target is FAM-labelled phosphorylated SCIMP Y96 peptide (amino acids 90-107) (mouse). The assay can be described thus: other fluorescence titration; FAM-labelled SCIMP Y96 peptides (aa 90-107) titrated with unlabelled TLR4-TIR; 25 °C, 30 mM Tris pH 7.4, 150 mM NaCl, 1 mM dithiothreitol; curve fit (Grafit).
Assay [2] addresses FAM-labelled unphosphorylated SCIMP Y96 peptide (amino acids 90-107) (mouse). Described as above.
The target of the next assay is TLR4 TIR domain, 670-835 (UniProt Q9QUK6). The assay can be described thus: fluorescence titration of FAM-labelled peptide. The settings on record: reference: unphosphorylated Y96 peptide; sites Y96.
Another assay addresses TLR4 (UniProt Q9QUK6). The experiment in a line: co-immunoprecipitation of SCIMP, TLR4 blot. The settings on record: reference: wild type SCIMP; sites Y96.

As for “His-TLR4-TIR (cytoplasmic TIR domain of mouse TLR4, amino acids 670-835) (from UniProt Q9QUK6 670-835) (domain or fragment)”, the Kd in assay [1] was 159 nM; in assay [2], greater than 2500 nM.

In the case of “SCIMP 90-107 (from UniProt Q3UU41) pY96 peptide”, the KD entry with TLR4 TIR domain, 670-835 is recorded as “stronger; reference >2.5 μM”.

Regarding SCIMP (from UniProt Q3UU41) Y96F, the “binding against the reference” value with TLR4 is recorded as “lost”.
